What all share (assay): cell adhesion assay
Test [1] has as its target E-cadherin-Fc E31A (human).
Test [2] deals with E-cadherin-Fc E56A (human).
In test [3] the target is E-cadherin-Fc E31D (human).
The target of test [4] is E-cadherin-Fc E89A (human).
Test [5] deals with E-cadherin-Fc S83A (human) (UniProt P12830).
In test [6] the target is E-cadherin-Fc N86A (human).
In test [7] the target is E-cadherin-Fc K28A (human).
The target of test [8] is E-cadherin-Fc K25A (human).
For test [9], the target named is E-cadherin-Fc K30A (human).
For test [10], the target named is E-cadherin-Fc D44A (human).
In test [11] the target is E-cadherin-Fc K33A (human).
Test [12] addresses E-cadherin-Fc N27A (human).
In test [13] the target is E-cadherin-Fc KEG30-32RDT (human) (UniProt P12830).
Test [14] addresses Purified human IgG1 (human).

With “E-cadherin on MCF-7 human breast epithelial cells (from UniProt P12830 155-882) (natural protein)”, the percent of cells bound in [1] and in test [3] was 41% each time. Moreover, the adhesion as percent of wild type (% of wild-type) in [2] came out at 90; in test [4], 2; in [5], 105; in [6], 93; in test [7], 94; in [8] it was 76. Besides, the adhesion as percent of wild type (% of wild-type) in test [9] worked out at 99; in [10] it was 94; in [11], 91; in test [12], 62.
On to “Integrin αEβ7 on human IEL-496 T cells (from UniProt P38570 19-1179; P26010 20-798) (complex)”, for which the adhesion as percent of wild type (% of wild-type) in test [1] is less than 2; in test [2] it was greater than 82; in test [3], less than 2; in test [4], 20; in test [5] it was greater than 82; in test [13] it was less than 2. The adhesion as percent of wild type (% of wild-type) in test [6], in test [7], in [8], in test [9], in test [10] and in [11] was greater than 82 each time. Also, the adhesion as percent of wild type (% of wild-type) in test [12] is greater than 82. Moreover, the percent of cells bound in test [2] was found to be 60%; in [4], 12%; in [5] it was 68%; in test [6], 57%; in [7], 58%; in test [8], 69%. Moreover, the percent of cells bound in [9] came out at 58%; in [10], 59%; in [11], 60%; in test [12] it was 58%.
“Integrin αEβ7 on K562 transfectants (K562-αEβ7) (from UniProt P38570 19-1179; P26010 20-798) (complex)”: the adhesion as percent of wild type (% of adhesion to wild-type) was found to be 102 in [2]; 80 in [5]; 86 in test [6]; 79 in [7]; 87 in [8]; 53 in test [9]. In addition, the figures for the adhesion as percent of wild type (% of adhesion to wild-type) in test [10], in test [11] and in [12] were 105, 104 and 57, respectively. Further, the percent of cells bound in test [14] was less than 1%.

The values are drawn from paper PMC2213439.
